Measured values taken from patent US20230192842A1 (published 2023).

Assays:
Experiment in all cases: cell-based or functional assay
[1] = target: T1, human CLDN3 E153A mutant on RKO KO cells (human, UniProt O15551 1-220)
T1 construct: Single-point alanine mutant, monoclonal RKO KO line with GFP
T1 chain: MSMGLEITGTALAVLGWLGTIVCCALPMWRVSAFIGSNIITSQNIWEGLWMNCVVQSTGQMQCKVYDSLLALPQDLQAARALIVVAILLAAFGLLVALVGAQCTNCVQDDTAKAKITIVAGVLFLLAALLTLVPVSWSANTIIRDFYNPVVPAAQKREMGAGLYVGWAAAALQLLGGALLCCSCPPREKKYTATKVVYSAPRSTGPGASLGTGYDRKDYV

[2] = target: T2, human CLDN3 N38A mutant on RKO KO cells (human, UniProt O15551 1-220)
T2 construct: Single-point alanine mutant, monoclonal RKO KO line with GFP
T2 chain: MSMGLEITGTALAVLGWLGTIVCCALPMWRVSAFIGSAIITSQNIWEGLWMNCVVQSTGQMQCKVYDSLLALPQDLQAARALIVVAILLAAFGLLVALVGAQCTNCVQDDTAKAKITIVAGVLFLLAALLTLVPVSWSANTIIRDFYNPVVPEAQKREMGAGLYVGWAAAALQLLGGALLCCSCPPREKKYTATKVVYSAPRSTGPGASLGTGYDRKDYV

[3] = target: human CLDN3 F34A mutant on RKO KO cells (human) (UniProt O15551)
[4] = target: human CLDN3 I39A mutant on RKO KO cells (human) (UniProt O15551)
[5] = target: human CLDN3 I45A mutant on RKO KO cells (human) (UniProt O15551)
[6] = target: human CLDN3 K156A mutant on RKO KO cells (human) (UniProt O15551)
[7] = target: human CLDN3 N148A mutant on RKO KO cells (human) (UniProt O15551)
[8] = target: human CLDN3 P149A mutant on RKO KO cells (human) (UniProt O15551)
[9] = target: human CLDN3 P152A mutant on RKO KO cells (human) (UniProt O15551)
[10] = target: human CLDN3 Q155A mutant on RKO KO cells (human) (UniProt O15551)
[11] = target: human CLDN3 Q43A mutant on RKO KO cells (human) (UniProt O15551)
[12] = target: human CLDN3 R157A mutant on RKO KO cells (human) (UniProt O15551)
[13] = target: human CLDN3 S42A mutant on RKO KO cells (human) (UniProt O15551)
[14] = target: human CLDN3 V150A mutant on RKO KO cells (human) (UniProt O15551)
[15] = target: human CLDN3 with C-terminal monomeric GFP tag on RKO-KO cells (human) (UniProt O15551)
[16] = target: human CLDN4 with C-terminal monomeric GFP tag on RKO-KO cells (human) (UniProt O14493)
[17] = target: T3, human CLDN6 with C-terminal monomeric GFP tag on RKO-KO cells (human) (UniProt P56747)
T3 sequence (looked up): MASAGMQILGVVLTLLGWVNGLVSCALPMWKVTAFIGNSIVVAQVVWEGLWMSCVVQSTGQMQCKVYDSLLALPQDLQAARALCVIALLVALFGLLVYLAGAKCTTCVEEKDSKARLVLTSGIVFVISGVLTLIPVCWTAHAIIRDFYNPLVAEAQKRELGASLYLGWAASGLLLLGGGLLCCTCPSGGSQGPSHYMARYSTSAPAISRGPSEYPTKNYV

[18] = target: human CLDN9 with C-terminal monomeric GFP tag on RKO-KO cells (human) (UniProt O95484)
[19] = target: mouse CLDN3 with C-terminal monomeric GFP tag on RKO-KO cells (mouse) (UniProt Q9Z0G9)
Sequence of mouse CLDN3 with C-terminal monomeric GFP tag on RKO-KO cells (mouse) (Q9Z0G9 whole entry): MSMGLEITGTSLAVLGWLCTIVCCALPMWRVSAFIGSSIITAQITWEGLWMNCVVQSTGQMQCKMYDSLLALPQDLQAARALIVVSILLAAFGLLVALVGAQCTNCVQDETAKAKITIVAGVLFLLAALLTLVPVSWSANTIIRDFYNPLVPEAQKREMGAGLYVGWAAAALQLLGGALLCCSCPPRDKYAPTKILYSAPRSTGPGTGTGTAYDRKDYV

Sequence of human CLDN4 with C-terminal monomeric GFP tag on RKO-KO cells (human) (O14493 whole entry): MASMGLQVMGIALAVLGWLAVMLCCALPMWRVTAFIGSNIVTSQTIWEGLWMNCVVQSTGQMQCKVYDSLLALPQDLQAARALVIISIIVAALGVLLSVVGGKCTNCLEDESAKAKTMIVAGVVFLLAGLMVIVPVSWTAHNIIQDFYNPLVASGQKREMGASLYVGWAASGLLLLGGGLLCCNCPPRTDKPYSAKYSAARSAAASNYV
Sequence of human CLDN9 with C-terminal monomeric GFP tag on RKO-KO cells (human) (O95484 whole entry): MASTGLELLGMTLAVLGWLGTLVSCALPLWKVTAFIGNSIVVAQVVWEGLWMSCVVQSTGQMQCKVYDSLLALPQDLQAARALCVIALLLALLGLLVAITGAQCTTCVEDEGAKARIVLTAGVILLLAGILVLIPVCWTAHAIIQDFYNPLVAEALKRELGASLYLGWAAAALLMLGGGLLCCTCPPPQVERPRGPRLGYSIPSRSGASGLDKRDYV

B1: 906-009_LNGFR anti-claudin-3 chimeric antigen receptor (scFv orientation L-H, short hCD8 spacer), on T cells (protein, part only; not given: linker, spacer and signaling domains, not shown: large carriers)
chain, part: DIQMTQSPSSLSASVGDRVTITCKASQDINRYIAWYQQKPGKAPKLLIHYTSTLQPGVPSRFSGSGSGTDFTLTISSLQPEDFATYYCLQYETLYSFGQGTKLEIKQVQLVQSGAEVKKPGSSVKVSCKASGYTFTNYWVHWVRQAPGQGLEWMGRIEPNSSGSQYNEKFKNRVTITADKSTSTAYMELSSLRSEDTAVYYCARGVMVPLDYWGQGTLVTVSS
IFNγ as % of IFNγ in CLDN3 WT (24 h co-culture, normalised to untransduced T cells) [1]: 3.56%
IFNγ as % of IFNγ in CLDN3 WT (24 h co-culture, normalised to untransduced T cells) [2]: 0.11%
IFNγ as % of IFNγ in CLDN3 WT (24 h co-culture, normalised to untransduced T cells) [3]: 79.7%
IFNγ as % of IFNγ in CLDN3 WT (24 h co-culture, normalised to untransduced T cells) [4]: 71.5%
IFNγ as % of IFNγ in CLDN3 WT (24 h co-culture, normalised to untransduced T cells) [5]: 66.1%
IFNγ as % of IFNγ in CLDN3 WT (24 h co-culture, normalised to untransduced T cells) [6]: 101%
IFNγ as % of IFNγ in CLDN3 WT (24 h co-culture, normalised to untransduced T cells) [7]: 104%
IFNγ as % of IFNγ in CLDN3 WT (24 h co-culture, normalised to untransduced T cells) [8]: 95.5%
IFNγ as % of IFNγ in CLDN3 WT (24 h co-culture, normalised to untransduced T cells) [9]: 61.6%
IFNγ as % of IFNγ in CLDN3 WT (24 h co-culture, normalised to untransduced T cells) [10]: 86.3%
IFNγ as % of IFNγ in CLDN3 WT (24 h co-culture, normalised to untransduced T cells) [11]: 72.8%
IFNγ as % of IFNγ in CLDN3 WT (24 h co-culture, normalised to untransduced T cells) [12]: 107%
IFNγ as % of IFNγ in CLDN3 WT (24 h co-culture, normalised to untransduced T cells) [13]: 95.2%
IFNγ as % of IFNγ in CLDN3 WT (24 h co-culture, normalised to untransduced T cells) [14]: 91.3%
% Live Cells at Assay Endpoint (40 hrs, donor 92024) [15]: 16.3%
% Live Cells at Assay Endpoint (70 hrs, donor D5) [15]: 0%
% Live Cells at Assay Endpoint (90 hrs, donor 0372470; RKO KO hCLDN3 L14) [15]: -6%
% Live Cells at Assay Endpoint (96 hrs, donor C1700979; RKO KO hCLDN3 L14) [15]: 29%
% Live Cells at Assay Endpoint (96 hrs, donor C1700980; RKO KO hCLDN3 L14) [15]: 57.3%
% Live Cells at Assay Endpoint (120 hrs, donor 0372470) [15]: 20.3%
IFNγ secretion fold change, anti-claudin-3 CAR-T cells vs anti-CD19 CAR-T cells [15]: 2500 fold
IFNγ secretion fold change, anti-claudin-3 CAR-T cells vs untransduced T cells [15]: 1350 fold
% Live Cells at Assay Endpoint (90 hrs, donor 0372470) [16]: 94.7%
% Live Cells at Assay Endpoint (120 hrs, donor 0372470) [16]: 90.7%
IFNγ secretion fold change, anti-claudin-3 CAR-T cells vs anti-CD19 CAR-T cells [16]: 25.1 fold
IFNγ secretion fold change, anti-claudin-3 CAR-T cells vs untransduced T cells [16]: 29.2 fold
% Live Cells at Assay Endpoint (40 hrs, donor 92024) [17]: 96.3%
% Live Cells at Assay Endpoint (96 hrs, donor C1700979) [17]: 96%
% Live Cells at Assay Endpoint (96 hrs, donor C1700980) [17]: 100%
IFNγ secretion fold change, anti-claudin-3 CAR-T cells vs anti-CD19 CAR-T cells [17]: 10.9 fold
IFNγ secretion fold change, anti-claudin-3 CAR-T cells vs untransduced T cells [17]: 2.59 fold
% Live Cells at Assay Endpoint (40 hrs, donor 92024) [18]: 96.7%
% Live Cells at Assay Endpoint (70 hrs, donor D5) [18]: 96.3%
% Live Cells at Assay Endpoint (96 hrs, donor C1700979) [18]: 92.7%
% Live Cells at Assay Endpoint (96 hrs, donor C1700980) [18]: 101%
IFNγ secretion fold change, anti-claudin-3 CAR-T cells vs anti-CD19 CAR-T cells [18]: 14.3 fold
IFNγ secretion fold change, anti-claudin-3 CAR-T cells vs untransduced T cells [18]: 11.3 fold
% Live Cells at Assay Endpoint (40 hrs, donor 92024) [19]: 89%
% Live Cells at Assay Endpoint (70 hrs, donor D5) [19]: 97.7%
% Live Cells at Assay Endpoint (90 hrs, donor 0372470) [19]: 94.5%
% Live Cells at Assay Endpoint (96 hrs, donor C1700979) [19]: 71%
% Live Cells at Assay Endpoint (96 hrs, donor C1700980) [19]: 86%
% Live Cells at Assay Endpoint (120 hrs, donor 0372470) [19]: 81.7%
IFNγ secretion fold change, anti-claudin-3 CAR-T cells vs anti-CD19 CAR-T cells [19]: 439 fold
IFNγ secretion fold change, anti-claudin-3 CAR-T cells vs untransduced T cells [19]: 521 fold
